Reference: PMC4410316
Read-outs that look alike come from different tables or passages of the source.

Assays:
human thrombin (HT) [1] = target: T1, human thrombin (HT) (Homo sapiens (human), UniProt P00734;P00734 328-363;364-622); test: nanopore single-molecule titration
human thrombin (HT) [2] = target: T1, human thrombin (HT); test: nanopore single-molecule titration; remark: listed apart in the source
human thrombin (HT) [3] = target: T1, human thrombin (HT); test: nanopore single-molecule titration; remark: listed apart in the source
human thrombin (HT) [4] = target: T1, human thrombin (HT); test: nanopore single-molecule titration; remark: listed apart in the source
human thrombin (HT) [5] = target: T1, human thrombin (HT); test: nanopore single-molecule

GGTTGGTGTGGATGG (structured_DNA) [TBA-T12A]
Kd (human thrombin (HT) [1]): 7 ± 1 nM

GGATGGTGTGGTTGG (structured_DNA) [TBA-T3A]
Kd (human thrombin (HT) [2]): 6 ± 1 nM

GGTTGGTGTGGTTGG (structured_DNA) [TBA]
Kd (human thrombin (HT) [3]): 13 ± 3 nM
Kd (human thrombin (HT) [4]): 8 ± 1 nM

CACCATCACCACCATCAT (ssDNA) [Random DNA]
binding result (human thrombin (HT) [5]): no binding
